# Results from patent US20220135687A1 (NANJING LEGEND BIOTECH, published 2022).
# Where two headings read alike, the source gives them in different places.
# Key:
# [1] = molecular target: T1, human PD-L1 expressed on CHO-K1 cells (Genscript, Cat #M00543) (human, UniProt Q9NZQ7 19-290); test: FACS, CHO-K1/human PD-L1 cells
# T1 construct: also called PD-L1 cell line
# Protocol: PD-L1 stable cell line binding activity assessment of 12 mouse mAbs was carried out using FACS. CHO-K1 cells expressing human PD-L1 (Genscript, Cat #M00543) were dissociated from adherent culture flasks and mixed with varying concentrations of antibodies. The antibody and cells were incubated for 30 minutes at room temperature, washed three times with FACS buffer (PBS containing 1% BSA). PE-labeled goat anti-mouse IgG (minimal x-reactivity) secondary antibody (BioLegend, Cat #405307) was added and incubated at room temperature for 15 minutes. Cells were washed again with FACS buffer and analyzed by FACSCalibur (BD Bioscience, San Jose, Calif.) and Flowjo software. Data were analyzed with Prism 6 (GraphPad Software, San Diego, Calif.) using non-linear regression, and EC₅₀ values were calculated (FIGS. 2A-2L and Table 3).
# [2] = molecular target: T1, human PD-L1 expressed on CHO-K1 cells …; test: FACS competition vs biotin-PD-1-Fc on CHO-K1/human PD-L1 cells
# Protocol: A series of diluted mouse mAbs (concentration starting from 900 nM, 3 fold dilution, 50 μl per well) were added afterwards. The mixture was incubated at 4° C. for 30 minutes, washed twice with wash buffer, followed by the addition of PEcy5/streptavidin (1 μg/ml, 150 μl/well). The plates were again incubated at 4° C. for 30 minutes before the cells in each well were analyzed by FACSCalibur (BD Bioscience, San Jose, Calif.) and Flowjo software.
# [3] = molecular target: T2, His-tagged PD-L1 ECD protein (ACROBiosystems) (human, UniProt Q9NZQ7 19-238); test: SPR, supernatant IgG captured, PD-L1-His analyte
# T2 construct: Bought protein; also called PD-L1-His; PD-L1/His; not shown: His tag
# T2 sequence (Q9NZQ7 19-238): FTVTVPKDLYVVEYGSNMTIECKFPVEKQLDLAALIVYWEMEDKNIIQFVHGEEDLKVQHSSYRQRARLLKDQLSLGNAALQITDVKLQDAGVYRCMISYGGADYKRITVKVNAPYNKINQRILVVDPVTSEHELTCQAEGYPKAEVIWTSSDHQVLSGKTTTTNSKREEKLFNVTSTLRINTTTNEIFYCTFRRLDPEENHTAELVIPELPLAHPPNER
# [4] = molecular target: T2, His-tagged PD-L1 ECD protein …; test: SPR, supernatant IgG captured, PD-L1-His analyte; remark: listed apart in the source
# T1 sequence (Q9NZQ7 19-290, one chain of several): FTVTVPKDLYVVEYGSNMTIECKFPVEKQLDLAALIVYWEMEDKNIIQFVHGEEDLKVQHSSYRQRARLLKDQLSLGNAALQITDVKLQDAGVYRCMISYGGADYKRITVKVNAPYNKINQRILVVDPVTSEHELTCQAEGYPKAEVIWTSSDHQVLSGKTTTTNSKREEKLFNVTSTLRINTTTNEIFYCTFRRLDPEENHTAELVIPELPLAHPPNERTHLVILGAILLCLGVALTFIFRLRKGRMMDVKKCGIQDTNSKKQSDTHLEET
Binder,EC50 [1],Top (best-fit value) [1],IC50 [2],other results
"21D1F4D4 (antibody, V domains shown, Mouse mAb from hybridoma culture) VH: QVQLQQPGAEVVRPGASVKLSCKASGYTFTNYWISWVKQRPGQGLEWIGNIYPSDSYTNYNQNFKDKATLTVDKSSSTAYMQLSSPTSEDSAVYYCTTGIITVIATRDDYWGQGTTLTVSS VL: QIVLTQSPAIMSASPGEKVTLTCSASSSVSSSYLYWYQQKPGSSPKLWIYSTSNLASGVPARFSGSGSGTSYSLTVSSMEAEDAASYFCHQWSSYPFTFGSGTKLEIK",9.37 nM,1960,3.79 nM,
"1H1G4D9 (antibody, V domains shown, Mouse mAb from hybridoma culture) VH: EGQLQQSGAELVKPGASVILSCTASGFNIKDTYIHWLNQRPEQGLEWIGRIEPANGNTKYDPTFQGKATITADTSSNTAYLQLTSLTSEDTAVYYCSRGGIYYYGSHWYFDVWGAGTLVTVSS VL: DVLMTQTPLSLPVSLGDQASISCRSSQNIVYSDGDTYLEWYLQKPGQSPKLLIFKVSNRFSGVPDRFSGSGSGTDFTLKISRVEAEDLGVYYCFQGSHVPFTFGSGTKLEIK",12.3 nM,1760,11.8 nM,
"30A6B2D9 (antibody, V domains shown, Mouse mAb from hybridoma culture) VH: EGQLQQSGAGLVKPGASVNLSCTASGFNIKDTYIHWMKQRPEQGLEWIGRIAPTNGNTKYDPTFQGKATITADSSSNTAYLQVSSLTSEDTAVYYCSRGGIYYYGSHWYFDVWGAGTTVTVSS VL: SVLMTQTPLSLPVSLGDQASISCRSSQNIVYSDGDTYLEWYLQKPGQSPKLLIFKVSNRFFGVPDRFSGSGSGTDFTLKINRVEAEDLGVYYCFQGSHVPFTFGSGTKLEIK",11.1 nM,1640,8.35 nM,
"25G1F9F8 (antibody, V domains shown, Mouse mAb from hybridoma culture) VH: EGQLQQSGAELVKPGASVNLSCTASGFNIKDTYIHWVKQRPDQGLEWIGRIAPTNGNAKFHPTFQGKATITADTSSNTAYLQLSSLTSEDTAVYYCTRGGIYYYGTHWYFDVWGAGTTVTVSS VL: DVLMNQTPLSLPVSLGDQASISCRSSQNIVYSDGNTYLEWYLQKPGQSPKLLIFQVSNRFSGVPDRFSGSGSGTDFTLKISRVEAEDLGFYYCFQGSHVPFTFGSGTKLEIK",18.1 nM,1750,13.8 nM,
"29A8_VH2-VL1.M1 (antibody, human IgG1, kappa, N297A, V domains shown, Humanized, hIgG1 effector-less Fc, kappa; see recheck on K24R in the .M1 light chain) VH: EVQLQESGPGLVKPSETLSLTCTVSGYSITSDFAWDWIRQFPGKGLEWMGHIRFSGTTSYNPSLKSRITISVDTSKNQFSLKLSSVTAADTAVYYCARSTLITKGFFDYWGQGTLVTVSS VL: DIQMTQSPSSLSASVGDRVTITCRASQDVSPAVAWYQQKPGKAPKLLIYWASTRHTGVPSRFSGSGSGTDFTLTISSLQPEDFATYYCQQHYSTPWTFGQGTKVEIKR",,,,Kd [3]: 1.3 nM; koff [3]: 0.00061 s⁻¹; kon [3]: 470000 M⁻¹ s⁻¹
"29A8_VH3-VL1.M1 (antibody, human IgG1, kappa, N297A, V domains shown, Humanized, hIgG1 effector-less Fc, kappa; see recheck on K24R in the .M1 light chain) VH: EVQLQESGPGLVKPSETLSLTCTVSGYSITSDFAWDWIRQFPGKGLEWMGHIRFSGTTSYNPSLKSRITISVDTSKNQFFLKLSSVTAADTATYYCARSTLITKGFFDYWGQGTLLTVSS VL: DIQMTQSPSSLSASVGDRVTITCRASQDVSPAVAWYQQKPGKAPKLLIYWASTRHTGVPSRFSGSGSGTDFTLTISSLQPEDFATYYCQQHYSTPWTFGQGTKVEIKR",,,,Kd [3]: 1.1 nM; koff [3]: 0.00051 s⁻¹; kon [3]: 480000 M⁻¹ s⁻¹
"53C1_VH2-VL1.M1 (antibody, human IgG1, kappa, N297A, V domains shown, Humanized, hIgG1 effector-less Fc, kappa; see recheck on K24R in the .M1 light chain) VH: EVQLVQSGAEVKKPGASVKVSCKASGYIFTGYGITWVRQAPGQGLEWIGEIFPRRVNTYYSEKFKGRATLTTDTSTSTAYMELRSLRSDDTAVYFCARDYDPYFALDYWGQGTTVTVSS VL: DIQMTQSPSSLSASVGDRVTITCRASQDVSTAVDWYQQKPGKAPKLLIYSASYRYTGVPDRFSGSGSGTDFTFTISSLQPEDIATYYCQQHYSIPFTFGQGTKLEIKR",,,,Kd [4]: 1 nM; koff [4]: 0.00025 s⁻¹; kon [4]: 240000 M⁻¹ s⁻¹
"53C1_VH3.M3-VL1.M1 (antibody, human IgG1, kappa, N297A, V domains shown, Humanized, VH N57Q in the entry; hIgG1 effector-less Fc, kappa; see recheck on K24R in the .M1 light chain) VH: EVQLVQSGAEVKKPGASVKLSCKASGYIFTGYGITWVRQAPGQGLEWIGEIFPRRVQTYYSEKFKGRATLTADTSTSTAYMELRSLRSDDTAVYFCARDYDPYFALDYWGQGTTVTVSS VL: DIQMTQSPSSLSASVGDRVTITCRASQDVSTAVDWYQQKPGKAPKLLIYSASYRYTGVPDRFSGSGSGTDFTFTISSLQPEDIATYYCQQHYSIPFTFGQGTKLEIKR",,,,Kd [4]: 0.21 nM; koff [4]: 7.3e-05 s⁻¹; kon [4]: 350000 M⁻¹ s⁻¹
"25B6E5D8 (antibody, V domains shown, Mouse mAb from hybridoma culture) VH: QFQLQQSGAELVRPGSSVKISCKASGYEFSSNWMNWVKQRPGQSLEWIGQIWPGDGDTNYNGKFRGKATLTSDKSSSTAYMQLNSLTSEDSAVYFCARGRASFYFDYWGQGTALTVSS VL: DIVLTQSPASLAVSLGQRATISCRASESVDDYGNSFMHWYQQKPGQPPKLLIYRASNLESGIPVRFSGSGSRTDFTLTINPVEADDVATYYCQQSNEDPHTFGGGTKLEIK",4.5 nM,1410,,

# Now from value to binder, other results behind:
EC50 [1],Top (best-fit value) [1],IC50 [2],Binder,other results
6.12 nM,1720,4.43 nM,"30A7B5D9 (antibody, V domains shown, Mouse mAb from hybridoma culture) VH: KVQLQQSGAELVKPGTSVKLSCKASGYTFTEYIIYWIKQRSGQGLEWIGWFYPGTGSIKYNEKFKDKATLTADKSSSTVFMELSRLTSEDSAVYFCARHEEGNLWFAYWGQGTLVTVSA VL: QIVLTQSPALMSASPGERVTMTCSASSDVSYMYWYQQKPRSSPKPWIYLTSNLASGVPARFSGSGSGTSYSLTISSMEAEDAATYYCQQWTGNPLTFGAGTKLELK",
3.29 nM,1780,2.89 nM,"42G2D7C3 (antibody, V domains shown, Mouse mAb from hybridoma culture) VH: DVQLLESGPGLVKPSQSLSLTCSVTGYSITSGYYWNWIRQFPGNNLEWMGSINYDGSNDYNPSLQDRISITRDTSKNQFFLKLNSVTTEDTATYYCARRLDYWGQGTTLIVSS VL: QIVLTQSPAIMSASPGEKVTISCSASSFINYMYWYQQKPGSSPKPWILRTSTLASGVPARFSGSGSGTSYSLTISSMEAEDAATYYCQQYHSYPLTFGAGTKLELK",
